Patent US20100292083A1 (Ablynx, published 2010)

What was measured:
[1] = molecular target: T1, IL6R on the cell-surface of TF-1 cells (UniProt P08887 20-468, limits assumed); assay: cell-based or functional assay
T1 sequence (looked up): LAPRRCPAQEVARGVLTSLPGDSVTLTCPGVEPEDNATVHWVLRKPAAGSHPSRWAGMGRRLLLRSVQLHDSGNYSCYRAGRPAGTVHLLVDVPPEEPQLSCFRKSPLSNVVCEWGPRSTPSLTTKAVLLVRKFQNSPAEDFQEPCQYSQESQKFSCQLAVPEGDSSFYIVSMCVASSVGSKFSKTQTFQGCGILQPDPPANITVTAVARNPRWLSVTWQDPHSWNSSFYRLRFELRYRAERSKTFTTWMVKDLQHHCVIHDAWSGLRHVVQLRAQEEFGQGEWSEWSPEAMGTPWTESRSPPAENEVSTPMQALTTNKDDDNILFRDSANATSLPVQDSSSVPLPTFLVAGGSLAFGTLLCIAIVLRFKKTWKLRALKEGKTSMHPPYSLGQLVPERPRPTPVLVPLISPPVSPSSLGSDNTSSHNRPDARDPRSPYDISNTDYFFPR

[2] = molecular target: soluble IL6R in cynomolgus monkey plasma (cynomolgus monkey, UniProt A0A2K5WN54 60-396); assay: cyno plasma potency assay: competition ELISA, inhibition of human IL6 binding to soluble IL6R
soluble IL6R in cynomolgus monkey plasma, sequence (A0A2K5WN54 entry or part of it): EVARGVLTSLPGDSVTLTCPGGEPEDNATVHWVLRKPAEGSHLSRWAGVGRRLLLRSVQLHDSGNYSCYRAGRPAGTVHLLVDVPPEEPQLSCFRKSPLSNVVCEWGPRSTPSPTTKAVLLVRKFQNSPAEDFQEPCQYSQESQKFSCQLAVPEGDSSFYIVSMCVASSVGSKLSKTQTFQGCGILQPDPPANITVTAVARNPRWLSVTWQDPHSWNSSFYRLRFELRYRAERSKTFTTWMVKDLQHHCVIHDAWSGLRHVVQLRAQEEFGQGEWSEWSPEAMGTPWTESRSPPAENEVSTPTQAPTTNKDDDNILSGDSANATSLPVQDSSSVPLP

[3] = molecular target: T2, soluble IL6R in human plasma (human, UniProt P08887 20-355, limits assumed); assay: human plasma potency assay: competition ELISA, inhibition of human IL6 binding to soluble IL6R
T2 sequence (looked up): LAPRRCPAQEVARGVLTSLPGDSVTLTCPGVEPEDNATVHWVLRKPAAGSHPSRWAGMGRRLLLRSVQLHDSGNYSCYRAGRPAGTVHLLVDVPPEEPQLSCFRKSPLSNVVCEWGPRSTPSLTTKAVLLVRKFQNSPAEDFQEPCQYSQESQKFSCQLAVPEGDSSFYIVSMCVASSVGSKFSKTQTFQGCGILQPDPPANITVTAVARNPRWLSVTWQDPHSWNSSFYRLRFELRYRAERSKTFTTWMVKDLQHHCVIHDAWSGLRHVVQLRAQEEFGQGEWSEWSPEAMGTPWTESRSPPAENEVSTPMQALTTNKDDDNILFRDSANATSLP
Description: All 5 Nanobodies and the parent Nanobody were also tested in a plasma potency assay. In this assay different concentrations of Nanobody are mixed with soluble IL6R containing plasma from either human or cynomolgus monkey and a fixed concentration of human IL6. After 1 hour of incubation the mixture is transferred to a Maxisorp plate coated with the anti-IL6R MAb BN-12 (Diaclone). The amount of IL6 bound was determined by subsequent addition of biotinylated anti-IL6 polyclonal antibody (R&D Systems) and streptavidin-HRP. TMB was used as substrate. Substrate conversion was measured at 450 nm.

[4] = molecular target: T3, human IL6R (human, UniProt P08887 20-358, limits assumed); assay: SPR (Biacore), purified Nanobody
T3 construct: Antigen of the Biacore experiments
T3 sequence (looked up): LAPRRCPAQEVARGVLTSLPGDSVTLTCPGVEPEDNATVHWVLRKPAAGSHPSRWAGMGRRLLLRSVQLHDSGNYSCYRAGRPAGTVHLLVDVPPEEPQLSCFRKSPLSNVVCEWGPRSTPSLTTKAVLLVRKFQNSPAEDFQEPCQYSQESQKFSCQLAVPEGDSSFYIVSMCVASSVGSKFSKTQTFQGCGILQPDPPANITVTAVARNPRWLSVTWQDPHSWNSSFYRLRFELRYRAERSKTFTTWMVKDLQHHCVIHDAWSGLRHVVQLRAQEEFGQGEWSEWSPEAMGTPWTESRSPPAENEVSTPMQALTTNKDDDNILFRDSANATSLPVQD
Description: Binding curves at different concentrations of purified Nanobody were recorded on Biacore and used to calculate values for ka, kd and Kd (Table B-4).

[5] = molecular target: T3, human IL6R; assay: SPR (Biacore), periplasmic extract
Description: Selection outputs were analyzed by picking individual colonies and growing them overnight in 1 ml 2×YT (Yeast Tryptone) medium+100 ug/ml Carbenicillin at 37 C. Nanobody containing periplasmic extracts were prepared, diluted 1/10 in PBS and subsequently tested for antigen binding in ELISA. Clones with the highest ELISA signals were sequenced and analyzed on Biacore. […] The off-rate of the best clone from the CDR3 library was 7×10e-4 s-1.

Binder	Inhibition of IL6-dependent proliferation of TF-1 cells (3H-thymidine incorporation), IC50 [1] [pM]	IC50 [2] [pM]	IC50 [3] [pM]	Kd [4] [pM]	koff [4] [s⁻¹]	kon [4] [M⁻¹ s⁻¹]	koff [5] [s⁻¹]	fold improvement of Kd relative to the parent molecule (IL6R65) [4] [fold]
Nanobody IL6R65 (VHH, also called ILR65) VHH: EVQLVESGGGLVQPGGSLRLSCAASGSIFKVNAMGWYRQAPGKGRELVAGIISGGSTNYADSVKGRFTISRDNAKNTLYLQMNSLRPEDTAVYYCAFVTTNSDYDLGRDYWGQGTLVTVSS	55000	2990	4930	4300	0.00234	539000	–	–
IL6R65PMP7C4 (VHH, Also expressed in E. coli and purified via IMAC) VHH: EVQLVESGGGLVQPGGSLRLSCAASGTTFRINVMAWYRQAPGKGRELVAGIITNGSTSYADSVKGRFTISRDNAKNTLYLQMNSLRPEDTAVYYCAFVTTNSDYDLGRDYWGQGTLVTVSS	2500	80	210	340	0.000177	527000	0.00043	13
IL6R65PMP7D6 (VHH, Also expressed in E. coli and purified via IMAC) VHH: EVQLVESGGGLVQPGGSLRLSCAASGSIFRVNVMAWYRQAPGKGRELVAAVINGGTTTYADSVKGRFTISRDNAKNTLYLQMNSLRPEDTAVYYCAFVTTNSDYDLGRDYWGQGTLVTVSS	3700	90	190	420	0.000279	672000	0.00044	–
IL6R65PMP7F4 (VHH, Also expressed in E. coli and purified via IMAC) VHH: EVQLVESGGGLVQPGGSLRLSCAASGTTFKVNVMAWYRQAPGKGRELVAGIINGGSTTYADSVKGRFTISRDNAKNTLYLQMNSLRPEDTAVYYCAFVTTNSDYDLGRDYWGQGTLVTVSS	5200	90	240	480	0.000292	609000	0.00026	–
IL6R65PMP7G8 (VHH, Also expressed in E. coli and purified via IMAC) VHH: EVQLVESGGGLVQPGGSLRLSCAASGSTFRINVMAWYRQAPGKGRELVAGVINDGSTTYADSVKGRFTISRDNAKNTLYLQMNSLRPEDTAVYYCAFVTTNSDYDLGRDYWGQGTLVTVSS	6200	140	340	950	0.000333	352000	0.00041	–
IL6R65PMP7G7 (VHH, Also expressed in E. coli and purified via IMAC) VHH: EVQLVESGGGLVQPGGSLRLSCAASGTTFKINIMAWYRQAPGKGRELVAGVITGGNTTYADSVKGRFTISRDNAKNTLYLQMNSLRPEDTAVYYCAFVTTNSDYDLGRDYWGQGTLVTVSS	3500	110	220	560	0.00031	550000	0.00037	–
